Measurements taken from the DeepSol protein solubility set.

Test: soluble on expression in E. coli; label from the status in PepcDB or PDB records

| Sequence | soluble on expression in E. coli |
| --- | --- |
| MPTSELTKERDLRDSKPIWADTPRTGIRSTHTPAANHYDTIVVGAGISGALVSHALHRPGQTMLIIDRREPVMGSSVASTAMIQHEIDTPLTELRKMIGKDAADRAWQRSARAVLRLEEIVSSLGISCSMKRKQALYLAGDEMGSRALKAEAAAREEAGIEARFLSTGELREQYGLDRTAAILSDISASANPAQLTAGLLRHTAAAGAEIVSKLEITDLRNLGDEVVLATADGKILSARSVVFCTGYEFLKMLESPKHQIISTWALASKKGLDLPDWLESHIVWEASDPYLYLRTDRDGRVIAGGEDEENPTAYQSERKLTAKAEAIRRKVEKLIGIDMGAPDYRWAAAFGTTTTGLPLIGAVPGMKNVYAVMGFGGNGITFSQIAAEIVAAAVNGGKDPDADLFRFGLEHHHHHH | soluble |
| MQPYTAPSEIALRQLDYFADKHVLVAGEVEDRFPIELRQYCASVSVFTTHYGYYSQLKAYPEITRYFGEQLTADLNADLILLYWPKAKQEAEYLLAMLLAKLGTGTEIVVVGENRSGVKSIEKMFAAYGPIHKYDSARRCSFYWGHCVHTPAAFDIEQWFKSYAVDYQGHELTIRSLPGVFSHGEFDLGSRLLLDTLPPLSGKVIDIGSGAGVLGCVMAKLNPHIELEMTDISALAIRSSQETLVANQLHGHVYPSDMFSDTGHHYNYIVTNPPFHSGLETSYSATERLLAESVDHLASGGSIWVVANSFLKYPPILEQAFGHCDIAAKTNKFAIYHAKK | not soluble |
| MKTKIINLVVVTGMSGAGKTVAIQSFEDIGYFTIDNIPPSLVPKVIELLKHSEETDKIALVVDMRSRVFFDEINDILDQLESNEELNFKILFLDATDGELVSRYKETRRSHPLAADGRVLDGIKLERELLSPLKSLSQNVVDTTKLTPRQLRKAISEQFSSKQDQSSFRIEVLSFGFKYGLPLDADLVFDVRFLPNPYYDPTLRNLTGLDKEVYDFVMTHKESEDFYKNLNHLIKPILPGYQKEGKSVLTIAVGCTGGQHRSVAFAHRLAQDLKNDWTVNETHRDKDRRKETVNRS | not soluble |
| MKEYIAFDIGGTQIKYGIVSEIGRVLKRQTVATEIHLGGEQIIQKLIYVSKKIMNEHTITGIGISTAGIVDINKGIVTGGADHIPGYSTIPIIDRLQEILKVPVSIDNDVNCAAFGEKWNGSGREKDNFIMLTLGTGIGGAIFIDGKLYRGHSFSAGEWGNMLIEEKTFEEVASISGLIRLVSKYKGKGKWNGKRIFELYDKGDREVAQAVGIFFKHLAIGISNLAYIFNPETIIIGGGITDRGNEFLKEVKEEVSKYLNQEIYNNCEIELAQNGNCAGMIGAIYHFLHHHK | not soluble |
| MKEEKRSSTGFLVKQRAFLKLYMITMTEQERLYGLKLLEVLRSEFKEIGFKPNHTEVYRSLHELLDDGILKQIKVKKEGAKLQEVVLYQFKDYEAAKLYKKQLKVELDRSKKLIEKALSDNF | soluble |
| MGSDKIHHHHHHMGIGIIIASHGKFAEGIHQSGSMIFGEQEKVQVVTFMPNEGPDDLYGHFNNAIQQFDADDEILVLADLWSGSPFNQASRVAGENPDRKMAIITGLNLPMLIQAYTERLMDAGAGVEQVAANIIKESKDGIKALPEDLNPVEETAATEKVVNALQGAIPAGTVIGDGKLKINLARVDTRLLHGQVATAWTPASKADRIIVASDEVAQDDLRKQLIKQAAPGGVKANVVPISKLIEASKDPRFGNTHALILFQTPQDALRAVEGGVEINELNVGSMAHSTGKTMVNNVLSMDKEDVATFEKLRDLGVTFDVRKVPNDSKKNLFELIQKTNIK | not soluble |
| MGLPCYHMQEVIMNKANKGHLDFWRKVANSPPGSQHDWNRVFANYTATVDNPGCCVWKELLAAYPDAKVLLTLHPRGAEAWYESTIDTIYFTENVWQFKILEWLTPFGWKFGDMSRKLIWGRTLDGVMNDRAKAVARYNTYVEQVKAAVPPHKLLVYKVTEGWAPLCDFLGLEHHHHHH | not soluble |
| MNVEKLKKMKGKEKIVMVTAYDAPSARIARDAGIDVILVGDSLGNNVLGYENTIPVTMEEMLIHVAAVKRGAPDAFIVADMPFLSYQTSVEKAVENAGKFLKVGANAVKIEGGEEFGELVQKLVESGIPVMGHIGLTPQFVNRFGGYRVQGKTEKNREYLLRSARELEKRGAFAIVLELVVEEVAKEITESVSIPTIGIGSGRFCDGQVLVWHDLLGLNPDFAPRFSKKYANLYEVILKALQEFRREVKKGLFPTEEHSFTDKSKGGVSS | soluble |
| RCGAGGYEALRGPLGAAGRRARQAWTIAPGSRRRGKAAAQSSVPGAGHAGGGAAPRRPAAAVRPGSPPLAGALTPRPSPLQGPFPGRLLAGPPPRFPGGTMTDTRRRVKVYTLNEDRQWDDRGTGHVSSGYVERLKGMSLLVRAESDGSLLLESKINPNTAYQKQQDTLIVWSEAENYDLALSFQEKAGCDEIWEKICQVQGKDPSVDITQDLVDESEEERFDDMSSPGLELPSCELSRLEEIAELVASSLPSPLRREKLALALENEGYIKKLLELFHVCEDLENIEGLHHLYEIIKGIFLLNRTALFEVMFSEECIMDVIGCLEYDPALSQPRKHREFLTKTAKFKEVIPISDPELKQKIHQTYRVQYIQDMVLPTPSVFEENMLSTLHSFIFFNKVEIVGMLQEDEKFLTDLFAQLTDEATDEEKRQELVNFLKEFCAFSQTLQPQNRDAFFKTLSNMGILPALEVILGMDDTQVRSAATDIFSYLVEYNPSMVREFVMQEAQQNDDDILLINLIIEHMICDTDPELGGAVQLMGLLRTLVDPENMLATANKTEKTEFLGFFYKHCMHVLTAPLLANTTEDKPSKDDFQTAQLLALVLELLTFCVEHHTYHIKNYIINKDILRRVLVLMASKHAFLALCALRFKRKIIGLKDEFYNRYIMKSFLFEPVVKAFLNNGSRYNLMNSAIIEMFEFIRVEDIKSLTAHVIENYWKALEDVDYVQTFKGLKLRFEQQRERQDNPKLDSMRSILRNHRYRRDARTLEDEEEMWFNTDEDDMEDGEAVVSPSDKTKNDDDIMDPISKFMERKKLKESEEKEVLLKTNLSGRQSPSFKLSLSSGTKTNLTSQSSTTNLPGSPGSPGSPGSPGSPGSVPKNTSQTAAITTKGGLVGLVDYPDDDEDDDEDEDKEDTLPLSKKAKFDS | soluble |
| MSLKPSDAEEARTEAFLVKLREFLDTVDGSVIERAAQIPDEYVKGLAELGCFGLKIPSEYGGLNMSQVAYNRVLMMVTTVHSSLGALLSAHQSIGVPEPLKLAGTAEQKRRFLPRCAAGAISAFLLTEPDVGSDPARMASTATPIDDGQAYELEGVKLWTTNGVVADLLVVMARVPRSEGHRGGISAFVVEADSPGITVERRNKFMGLRGIENGVTRLHRVRVPKDNLIGREGDGLKIALTTLNAGRLSLPAIATGVAKQALKIAREWSVERVQWGKPVGQHEAVASKISFIAATNYALDAVVELSSQMADEGRNDIRIEAALAKLWSSEMACLVGDELLQIRGGRGYETAESLAARGERAVPVEQMVRDLRINRIFEGSSEIMRLLIAREAVDAHLTAAGDLANPKADLRQKAAAAAGASGFYAKWLPKLVFGEGQLPTTYREFGALATHLRFVERSSRKLARNTFYGMARWQASLEKKQGFLGRIVDIGAELFAISAACVRAEAQRTADPVEGEQAYELAEAFCQQATLRVEALFDALWSNTDSIDVRLANDVLEGRYTWLEQGEGHHHHHH | not soluble |
| MSLVEDVKGVGFKTADKIASSLGIEADSPNRFRAALMHEVNTHSQSTGDTYIEAKNLLEMTIDLLEEARNVEVNPSAVAEEINGLIVDGKVQQEGTKIFENSLYFAEDGIRKSLTALTNRSGKDFADEKLLTVLAEVERDLEITYDDLQKQAIIGAMNQQFFILTGGPGTGKTTIINGFIETYARLHQLDLDPDHYNDDVFPILLAAPTGRASRRMNELTGLPAATIHRHLGLGQDEAEDALGNELSGALLIVDEFSMVDTWLANKLFQAIPGSMKVLLVGDADQLPSVGPGQIFADLLKIPEIPSVKLDKIFRQGDDSTITDLAHHIKDGQLPSDFTAKKPDRSYFEVSANFVPQMVEQIASAWQKRGNNPFELQILAPMYKGMAGINAMNVLLQNLFNPLNDRLEFALGDMKFREGDKVLHLVNDAEANVFNGDLGQIVELIAAKYTDSKQDELVMDFDGQELTYPRAEWYKITLAYAMSIHKSQGSEFSTVIVPMVSSYSRMLERNLLYTAITRAKQSLILLGEERAFAQAVAREGANRKTYLIERFMGENEGHHHHHH | soluble |
